# From patent US20250295734A1, “ANTICOAGULANT PROTEINS AND THEIR USE FOR TREATING DISEASES ASSOCIATED WITH THE ACTIVATION OF NEUTROPHILS” (BIOXODES, priority 2018, published 2025)
# B1: Ir-CPI: Ixodes ricinus salivary gland polypeptide, contact phase inhibitor, MW=7660 Da; sequence SEQ ID NO: 1 or SEQ ID NO: 2 (protein)
# chain: ANHKGRGRPAKCKLPPDDGPCRARIPSYYFDRKTKTCKEFMYGGCEGNENNFENITTCQEECRAKKV
# Assays:
# intrinsic pathway = details: in vitro; dose-dependent; cited from earlier work
# FXIIa [1] = target: T1, FXIIa (Homo sapiens, UniProt P00748); details: aPTT-based test, FXII deficient plasma; cited from earlier work
# T1 construct: The resulting α-FXIIa has a heavy chain of 50 kDa, connected to a light chain of 28 kDa
# T1 sequence (P00748 20-372 limits assumed): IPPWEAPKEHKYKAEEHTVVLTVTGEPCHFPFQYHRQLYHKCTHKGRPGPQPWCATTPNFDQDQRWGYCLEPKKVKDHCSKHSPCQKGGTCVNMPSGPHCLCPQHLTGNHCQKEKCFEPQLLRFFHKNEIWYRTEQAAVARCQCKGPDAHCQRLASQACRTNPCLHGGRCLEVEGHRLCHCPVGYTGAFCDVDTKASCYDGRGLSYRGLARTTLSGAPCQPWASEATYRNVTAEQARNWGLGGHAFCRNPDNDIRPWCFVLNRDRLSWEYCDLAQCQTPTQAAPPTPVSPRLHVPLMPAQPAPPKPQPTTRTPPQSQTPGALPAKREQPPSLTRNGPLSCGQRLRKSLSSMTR
# T1 sequence (P00748 373-615 limits assumed): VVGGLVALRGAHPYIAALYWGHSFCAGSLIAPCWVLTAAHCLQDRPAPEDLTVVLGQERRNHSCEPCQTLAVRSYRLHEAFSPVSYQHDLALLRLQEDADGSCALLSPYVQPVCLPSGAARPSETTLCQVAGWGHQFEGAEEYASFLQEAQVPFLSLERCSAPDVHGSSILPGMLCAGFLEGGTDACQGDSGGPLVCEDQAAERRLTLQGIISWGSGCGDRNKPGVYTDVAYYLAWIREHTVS
# thrombin = thrombin (Homo sapiens, UniProt P00734); details: cited from earlier work
# Factor XIIa = target: T2, Factor XIIa (Homo sapiens, UniProt P00748); details: cited from earlier work
# T2 construct: The resulting α-FXIIa has a heavy chain of 50 kDa, connected to a light chain of 28 kDa
# T2 sequence (P00748 20-372 limits assumed): T1 sequence (P00748 20-372 limits assumed)
# T2 sequence (P00748 373-615 limits assumed): T1 sequence (P00748 373-615 limits assumed)
# [2] = system: neutrophils isolated from the bone marrow of femurs of mice; test: In vitro NETosis assay; assay type: cell-based, mice (C57BL/6); details: PMNs primed with TNFα, activated with PAF
# Description: Neutrophils were isolated from the bone marrow of femurs of mice (C57BL/6) as previously described (Hu 2012) using FR-1-coupled magnetic beads (anti-Ly6G Microbead Kit, Miltenyi Biotec).
# Cells were harvested, centrifugated and incubated during 30 min with or without 2 ng/ml of TNFα in Hanks solution (Gibco). Neutrophils were seeded on slides coated with poly-L-lysine and incubated at 37° C. for 1 h in Hanks solution. Next, neutrophils were activated with or without 25 μM of platelet-activating factor (PAF)±Ir-CPI (0.65 or 2 μM) in Hanks solution (3 h at 37° C.). NET formation was assessed by immunofluorescence (fluorescent microscope from Leica) after fixation of neutrophils with 4% PAF (paraformaldehyde) and fluorescent labelling of citrullinated histones (H3 antibody) and nuclei (Hoechst). Processing and analysis of images was performed using the FIJI software.
# Percentage of NETosis (median) was presented for 5 independent experiments. A Wilcoxon test was used for statistical analysis (ns: not significant; *p<0.05; **p<0.01; ***p<0.001). […]
# [3] = Tail bleeding time assessment; assay type: in vivo, mice (C57BL/6JRj)
# Description: Tail bleeding time assessment under NaCl or Ir-CPI treatment (Low or High dose) was performed as previously described (Mezouar et al., 2015) on anesthetized wild-type (i.e. cancer-free) or cancer-bearing mice. Briefly, a 1- to 3-mm portion of the distal tail was removed from mice; the tail was immersed in isotonic saline (37° C.), and the time to complete cessation of blood flow recorded. The bleeding time was monitored for a maximum of 10 min.
# FXIIa [4] = target: T1, FXIIa; details: cited from earlier work
# kallikrein = kallikrein (Homo sapiens, UniProt P03952); details: cited from earlier work
# Sequence of kallikrein (P03952 20-390 limits assumed): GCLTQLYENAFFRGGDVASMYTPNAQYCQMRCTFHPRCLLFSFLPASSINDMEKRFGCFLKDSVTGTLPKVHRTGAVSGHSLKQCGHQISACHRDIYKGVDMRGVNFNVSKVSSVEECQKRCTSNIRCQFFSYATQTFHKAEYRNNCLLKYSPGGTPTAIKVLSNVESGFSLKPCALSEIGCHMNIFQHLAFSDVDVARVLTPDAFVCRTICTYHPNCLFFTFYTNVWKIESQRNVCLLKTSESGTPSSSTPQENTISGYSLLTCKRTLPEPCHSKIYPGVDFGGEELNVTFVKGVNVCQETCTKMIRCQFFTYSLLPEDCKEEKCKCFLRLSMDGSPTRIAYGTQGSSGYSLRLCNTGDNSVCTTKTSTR
# Sequence of kallikrein (P03952 391-638 limits assumed): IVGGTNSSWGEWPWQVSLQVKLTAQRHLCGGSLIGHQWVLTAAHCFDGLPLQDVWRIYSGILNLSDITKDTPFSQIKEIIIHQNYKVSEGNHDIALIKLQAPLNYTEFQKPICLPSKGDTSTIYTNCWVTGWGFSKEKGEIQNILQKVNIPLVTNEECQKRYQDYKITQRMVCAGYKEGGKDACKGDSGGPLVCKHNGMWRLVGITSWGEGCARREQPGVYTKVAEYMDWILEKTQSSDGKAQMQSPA
# [5] = system: neutrophil elastase activity; test: Laser-induced vessel wall injury: neutrophil elastase activity; assay type: in vivo, mice (C57BL/6JRj); details: iv bolus 20.5 mg/kg + infusion 3.7 mg/kg/h
# Description: (§1) Ir-CPI was administered intravenously as a bolus (20.5 mg/kg) immediately followed by a continuous infusion at a rate of 3.7 mg/kg/h (see Table 1 below). Due to fast distribution and elimination of Ir-CPI in the mice (t1/2α=14 min and t1/2β=236 min), the combination of the bolus and the infusion was chosen in order to maintain a constant Ir-CPI concentration into the blood.
# Vessel wall injury was induced with a Micropoint Laser System (Photonics Instruments) focused through the microscope objective, parfocal with the focal plane and aimed at the vessel wall, as previously described (Dubois et al., 2006). Typically, 1 or 2 pulses were required to induce vessel wall injury.
# Multiple thrombi were studied in a single mouse, with new thrombi formed upstream of earlier thrombi to avoid any contribution from thrombi generated earlier in the animal under study. Laser-beam injuries were done at various time after the start of test-item administration (+5 min up to about 150 min after bolus administration of Ir-CPI or NaCl (control)).
# Image analysis was performed using Slidebook 4.1 (Intelligent Imaging Innovations). Fluorescence data were captured digitally at up to 50 frames per second and analyzed as previously described (Falati et al., 2002). The kinetics of thrombus formation were analyzed by determining median fluorescence values over time in a minimum number of 20 thrombi. […]
# [6] = Distribution and elimination of Ir-CPI in the mice; assay type: in vivo
# Description: as §1
# prekallikrein (PK) = prekallikrein (PK) (Homo sapiens, UniProt P03952); details: cited from earlier work
# Sequence of prekallikrein (PK) (P03952 20-638): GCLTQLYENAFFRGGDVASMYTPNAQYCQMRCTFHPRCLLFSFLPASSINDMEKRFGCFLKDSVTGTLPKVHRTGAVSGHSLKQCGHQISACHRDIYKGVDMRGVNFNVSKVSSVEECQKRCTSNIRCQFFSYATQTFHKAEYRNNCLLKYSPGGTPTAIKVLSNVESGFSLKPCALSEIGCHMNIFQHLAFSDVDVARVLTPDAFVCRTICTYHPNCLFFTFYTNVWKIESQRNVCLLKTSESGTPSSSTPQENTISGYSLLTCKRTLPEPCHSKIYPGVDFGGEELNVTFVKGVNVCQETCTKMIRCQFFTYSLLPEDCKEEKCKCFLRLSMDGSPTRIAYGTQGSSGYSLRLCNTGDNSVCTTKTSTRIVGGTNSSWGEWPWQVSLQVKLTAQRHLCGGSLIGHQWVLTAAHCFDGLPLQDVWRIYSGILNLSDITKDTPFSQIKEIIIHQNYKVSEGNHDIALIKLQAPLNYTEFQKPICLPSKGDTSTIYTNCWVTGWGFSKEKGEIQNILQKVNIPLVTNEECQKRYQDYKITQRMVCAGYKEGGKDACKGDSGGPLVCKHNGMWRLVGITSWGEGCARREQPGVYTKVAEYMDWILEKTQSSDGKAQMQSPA
molecule,measurement,setting,value
B1,activated Partial Thromboplastin Time (aPTT),intrinsic pathway,prolong
same,FXIIa clotting activity,FXIIa [1],inhibits
same,activity on thrombin,thrombin,totally inactive
same,activation of Factor XI by Factor XIIa,Factor XIIa,inhibit activation
same,activation of PK by Factor XIIa,Factor XIIa,inhibit activation
same,percentage of NET formation,"[2]; Ir-CPI 0.65 μM, *p<0.05 vs TNFα and PAF",significant reduction
same,percentage of NET formation,"[2]; Ir-CPI 2 μM, ***p<0.001 vs TNFα and PAF",significant reduction
same,tail bleeding time compared to NaCl-treated mice,"[3]; High dose (20.5 mg/kg + 3.7 mg/kg/h), cancer-bearing mice",No significant effect
same,tail bleeding time compared to NaCl-treated mice,"[3]; High dose (20.5 mg/kg + 3.7 mg/kg/h), cancer-free mice",No significant effect
same,tail bleeding time compared to NaCl-treated mice,"[3]; Low dose (10.3 mg/kg + 1.9 mg/kg/h), cancer-bearing mice",No significant effect
same,tail bleeding time compared to NaCl-treated mice,"[3]; Low dose (10.3 mg/kg + 1.9 mg/kg/h), cancer-free mice",No significant effect
same,binding to FXIIa,FXIIa [4],binds
same,binding to kallikrein,kallikrein,binds
same,signal corresponding to neutrophil elastase activity compared to control mice,[5],drastically reduced
same,t1/2α,[6],0.233 h
same,t1/2β,[6],3.93 h
same,binding to prekallikrein (PK),prekallikrein (PK),unable to bind
